Earlier results on 1 substance are cited in publication PMC8112298.

The target in the data set is protein Z (Homo sapiens) (UniProt P22891).
UniProt P22891, sequence (P22891 41-400): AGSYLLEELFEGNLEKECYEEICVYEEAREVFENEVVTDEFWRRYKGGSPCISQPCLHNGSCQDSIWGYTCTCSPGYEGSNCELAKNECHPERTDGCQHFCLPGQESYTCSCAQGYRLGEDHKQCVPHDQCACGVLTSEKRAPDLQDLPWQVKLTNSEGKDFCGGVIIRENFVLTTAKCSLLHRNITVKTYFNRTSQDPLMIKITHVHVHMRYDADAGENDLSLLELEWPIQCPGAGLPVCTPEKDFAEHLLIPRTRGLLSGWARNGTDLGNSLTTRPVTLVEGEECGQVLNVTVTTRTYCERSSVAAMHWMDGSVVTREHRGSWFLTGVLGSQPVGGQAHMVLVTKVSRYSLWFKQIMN

As to ZPI (from UniProt Q9UK55), the Kd was 10 nM.
